In one test the target is baboon factor XI (baboon (Papio anubis)). As to the kind of experiment: cell-based or functional assay.
Another test concerns the target T1, human factor XI (human, UniProt P03951 19-625).
T1 construct: Disulfide-bonded homodimer of about 160 kDa; also called FXI; human FXI
The test can be described thus: Western blot of plasma. For orientation: In western blotting, separated proteins are transferred to a membrane and probed.

In a further test the target is Prekallikrein (PK) (UniProt P03952 20-638, limits assumed). The test can be described thus: Western blot.
Prekallikrein (PK), sequence (P03952 20-638 limits assumed): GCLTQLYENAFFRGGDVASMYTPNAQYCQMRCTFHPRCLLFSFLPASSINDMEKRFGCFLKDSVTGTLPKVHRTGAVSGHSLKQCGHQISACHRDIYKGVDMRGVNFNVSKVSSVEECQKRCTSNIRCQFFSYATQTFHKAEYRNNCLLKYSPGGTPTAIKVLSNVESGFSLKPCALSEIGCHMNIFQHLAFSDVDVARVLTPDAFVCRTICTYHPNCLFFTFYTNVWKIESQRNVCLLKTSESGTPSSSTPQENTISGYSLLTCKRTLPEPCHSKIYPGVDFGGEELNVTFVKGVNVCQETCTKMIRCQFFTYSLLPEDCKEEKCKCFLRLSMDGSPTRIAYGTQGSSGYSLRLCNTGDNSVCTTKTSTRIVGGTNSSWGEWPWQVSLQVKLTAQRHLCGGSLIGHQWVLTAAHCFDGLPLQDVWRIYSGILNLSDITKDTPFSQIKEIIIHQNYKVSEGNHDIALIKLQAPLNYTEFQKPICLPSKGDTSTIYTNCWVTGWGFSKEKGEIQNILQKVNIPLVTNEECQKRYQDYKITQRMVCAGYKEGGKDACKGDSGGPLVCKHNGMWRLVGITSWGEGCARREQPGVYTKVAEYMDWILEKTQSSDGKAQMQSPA

T1 sequence (P03951 19-625 I95Y limits assumed): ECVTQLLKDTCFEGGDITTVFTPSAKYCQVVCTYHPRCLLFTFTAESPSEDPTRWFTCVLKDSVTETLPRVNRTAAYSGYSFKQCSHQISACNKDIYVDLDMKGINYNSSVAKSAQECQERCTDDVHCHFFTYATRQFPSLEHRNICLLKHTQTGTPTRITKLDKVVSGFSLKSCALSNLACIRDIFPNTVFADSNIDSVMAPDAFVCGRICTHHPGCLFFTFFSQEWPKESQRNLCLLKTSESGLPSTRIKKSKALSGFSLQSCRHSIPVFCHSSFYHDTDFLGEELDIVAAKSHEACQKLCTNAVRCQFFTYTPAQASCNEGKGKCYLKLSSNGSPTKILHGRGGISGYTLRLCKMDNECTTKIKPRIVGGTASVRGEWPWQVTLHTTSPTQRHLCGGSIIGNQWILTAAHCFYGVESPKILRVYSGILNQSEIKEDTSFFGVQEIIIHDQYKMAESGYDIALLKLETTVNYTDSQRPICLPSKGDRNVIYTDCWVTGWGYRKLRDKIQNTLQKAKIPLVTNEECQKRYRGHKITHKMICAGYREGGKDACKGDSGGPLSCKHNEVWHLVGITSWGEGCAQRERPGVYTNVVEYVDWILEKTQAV

B1: anti-factor XI monoclonal antibody 1A6 (aXIMab) (antibody, V domains shown)
VH: QVTLKESGPGILKPSQTLSLTCSFSGFSLSTSGMGVGWIRQPSGKGLEWLAHIWWDDDKYYNPSLKSQLTISKDTSRNQVFLKITSVDAADTATYYCARKRSSVVAHYYAMDYWGQGTSVTVSS
VL: DIVLTQSPASLAVSLGQRATISCKASQSVDYDGDSYLNWYQQKPGQPPKLLIYAASNLESGIPARFSGSGSGTDFTLNIHPVEEEDAATYYCQQSNGDPWTFGGGTKLEIK
notes: also called anti-FXI monoclonal antibody
Take B1: the “IC50 in a clotting assay using FXI deficient human plasma with serial dilutions of NBP as standards” value with baboon factor XI was 2.5 nM. Further, the binding result with human factor XI is “binds”; with Prekallikrein (PK), “no binding”.

The values above are taken from patent publication US20150322163A1 (OREGON HEALTH AND SCIENCE UNIVERSITY, published 2015).
